In article PMC11264168 one finds stoichiometry N data, which are given here for four substances.

In experiment [1] the target is SyB-Cph1(GAF-PHY) Arg101-Ala mutant (Synechococcus sp. JA-2-3B'a(2-13)). In words: SEC; arginine-to-alanine mutants; data not shown. (In general: In gel filtration, larger molecules generally elute earlier.)
Experiment [2] addresses SyB-Cph1(GAF-PHY) Arg111-Ala mutant (Synechococcus sp. JA-2-3B'a(2-13)). In words: SEC; arginine-to-alanine mutants; data not shown.
Experiment [3] deals with SyB-Cph1(GAF-PHY) Arg133-Ala mutant (Synechococcus sp. JA-2-3B'a(2-13)). In words: SEC; arginine-to-alanine mutants; data not shown.
For experiment [4], the target named is SyB-Cph1(GAF-PHY), the GAF-PHY fragment (photo-sensing module) of the PAS-less phytochrome SyB-Cph1, residues 1-421, assembled with phycocyanobilin, as Pr (Synechococcus sp. JA-2-3B'a(2-13)). In words: SEC; Pr in darkness, 30 mM Tris-HCl (pH 8.0), Superdex 200 Increase 10/300 GL, 0.5 ml/min, gel filtration mass standards.

For “SyB-Cph1(GAF-PHY) Arg101-Ala mutant (domain or fragment)”, in experiment [1], the stoichiometry N (commonly a count of units in the complex or per binding partner) came out at 2.
For the substance “SyB-Cph1(GAF-PHY) Arg111-Ala mutant (domain or fragment)”, the stoichiometry N in experiment [2] amounted to 2.
“SyB-Cph1(GAF-PHY) Arg133-Ala mutant (domain or fragment)”: in experiment [3], the stoichiometry N is 2.
“SyB-Cph1(GAF-PHY), the GAF-PHY fragment (photo-sensing module) of the PAS-less phytochrome SyB-Cph1, residues 1-421, assembled with phycocyanobilin, as Pr (domain or fragment)” registered a stoichiometry N in experiment [4] of 2.
